From article PMC8002388 come the findings set out here.

Assay [1] concerns the target light-activated rhodopsin in rod outer segments (ROS) (UniProt P02699).
For assay [2] the target is unchanged. This is another data set of the same source.

Chain of UniProt P02699 (P02699 whole entry): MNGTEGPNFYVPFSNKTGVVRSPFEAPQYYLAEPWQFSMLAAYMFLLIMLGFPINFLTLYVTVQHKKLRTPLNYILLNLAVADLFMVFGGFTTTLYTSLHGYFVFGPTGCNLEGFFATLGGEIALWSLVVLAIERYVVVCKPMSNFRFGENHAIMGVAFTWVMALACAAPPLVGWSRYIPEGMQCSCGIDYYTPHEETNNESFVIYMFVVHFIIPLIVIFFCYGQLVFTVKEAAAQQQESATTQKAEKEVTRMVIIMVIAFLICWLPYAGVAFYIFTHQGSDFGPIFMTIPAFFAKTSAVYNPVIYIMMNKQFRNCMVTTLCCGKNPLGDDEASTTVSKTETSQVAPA

In assay [1], “C-terminally H6-tagged bovine GRK2 E36A (S670A background) (from UniProt P21146 1-689) (enzyme)” yielded a normalized Vmax of rhodopsin (ROS) phosphorylation when [ATP] is varied of 0.9 A.U. The Km for rhodopsin, phosphorylation of light-activated rhodopsin in ROS (50 nM-5 µM) by 20 nM GRK2 with 150 nM human Gβ1γ2 and 5 µM ATP in assay [2] was found to be 0.13 µM.
As for “C-terminally H6-tagged bovine GRK2 E532A (S670A background) (from UniProt P21146 1-689) (enzyme)”, in assay [1], the normalized Vmax of rhodopsin (ROS) phosphorylation when [ATP] is varied turned out to be 0.8 A.U. Further, the Km for rhodopsin, phosphorylation of light-activated rhodopsin in ROS (50 nM-5 µM) by 20 nM GRK2 with 150 nM human Gβ1γ2 and 5 µM ATP in assay [2] was determined as 0.14 µM.
Substance “C-terminally H6-tagged bovine GRK2 L33N (S670A background) (from UniProt P21146 1-689) (enzyme)” returned a normalized Vmax of rhodopsin (ROS) phosphorylation when [ATP] is varied in assay [1] of 1 A.U. Besides, in assay [2], the Km for rhodopsin, phosphorylation of light-activated rhodopsin in ROS (50 nM-5 µM) by 20 nM GRK2 with 150 nM human Gβ1γ2 and 5 µM ATP turned out to be 0.36 µM.
“C-terminally H6-tagged bovine GRK2 L536N (S670A background) (from UniProt P21146 1-689) (enzyme)” displayed a normalized Vmax of rhodopsin (ROS) phosphorylation when [ATP] is varied in assay [1] of 1.2 A.U. Further, the Km for rhodopsin, phosphorylation of light-activated rhodopsin in ROS (50 nM-5 µM) by 20 nM GRK2 with 150 nM human Gβ1γ2 and 5 µM ATP in assay [2] came to 0.18 µM.
Take “C-terminally H6-tagged bovine GRK2 L547N (S670A background) (from UniProt P21146 1-689) (enzyme)”: in assay [1], the normalized Vmax of rhodopsin (ROS) phosphorylation when [ATP] is varied was determined as 0.8 A.U. The Km for rhodopsin, phosphorylation of light-activated rhodopsin in ROS (50 nM-5 µM) by 20 nM GRK2 with 150 nM human Gβ1γ2 and 5 µM ATP in assay [2] was 0.17 µM.
Substance “C-terminally H6-tagged bovine GRK2, wild type (S670A background) (from UniProt P21146 1-689) (enzyme)” returned a normalized Vmax of rhodopsin (ROS) phosphorylation when [ATP] is varied in assay [1] of 1.3 A.U. Also, the Km for rhodopsin, phosphorylation of light-activated rhodopsin in ROS (50 nM-5 µM) by 20 nM GRK2 with 150 nM human Gβ1γ2 and 5 µM ATP in assay [2] was 0.24 µM.
